# Columns and labels:
# [1] = molecular target: T1, PcrV of P. aeruginosa strain PA103 (on TTSS-induced bacteria) (Pseudomonas aeruginosa strain PA103); assay: cell-based or functional assay
# [2] = molecular target: T1, PcrV of P. aeruginosa strain PA103 (on …); assay: cell-based or functional assay; remark: listed apart in the source
# [3] = molecular target: T1, PcrV of P. aeruginosa strain PA103 (on …); assay: cell-based or functional assay; remark: listed apart in the source
# [4] = molecular target: T1, PcrV of P. aeruginosa strain PA103 (on …); assay: cell-based or functional assay; remark: listed apart in the source
# [5] = molecular target: GST-PcrV (strain PAO1, amino acid residues 1-294) (Pseudomonas aeruginosa strain PAO1); assay: SPR Biacore T100, GST-PcrV immobilised
# [6] = molecular target: T2, recombinant PcrV protein (rPcrV), strain PAO1, amino acid residues 1-294, C-terminal His6 (Pseudomonas aeruginosa strain PAO1); assay: ELISA, periplasmic extract on biotinylated rPcrV
# [7] = molecular target: T2, recombinant PcrV protein (rPcrV), …; assay: SPR ProteOn, periplasmic extract on immobilised rPcrV
# [8] = molecular target: T1, PcrV of P. aeruginosa strain PA103 (on …); assay: cell-based or functional assay; remark: listed apart in the source
# Throughout, for cytotox assay (% inhibition), P3X63, PA103: test concentration or dose not given here.
Binder,"cytotox assay (% inhibition), P3X63, PA103 [4] [%]",binding ELISA (OD 450 nm) [6] [OD 450 nm],koff [7] [s⁻¹],"% inhibition, P3X63 cytotoxicity assay, MOI 4 [8] [%]","IC50 (nM), P3X63 cytotoxicity assay, MOI 4 [8] [nM]",also measured
Nanobody 259 (1E11-40GS-5H01) (VHH) EVQLVESGGGLVQPGGSLRLSCAASGSTRSVNPMAWFRQAPGRQREWVATISRSGYATYADSVKGRFTISGDNAKSSVYLQMNSLKPEDTAVYYCVTGTYWGQGTLVTVSSGGGGSGGGGSGGGGSGGGGSGGGGSGGGGSGGGGSGGGGSEVQLVESGGGLVQPGGSLRLSCAASGSTLDYYAIGWFRQAPGKEREGVSCTSNSGSTYYGGSVKGRFTASRDNAKNTVYLQMNSLRPEDTAVYYCVATIGCATLGGTLDVQRYYYRGQGTLVTVSS,,,,,,"% inhibition in P3X63 cytotoxicity assay, extract 1/150 [1]: 52%; Ratio (IC50 Fab 13.37/IC50 Nanobody), A549 cytotoxicity [2]: 9 fold; Efficacy (%), P3X63 cytotoxicity, MOI 12 [3]: 100%; IC50 value (M), P3X63 cytotoxicity, MOI 12 [3]: 3.9e-11 M"
Nanobody 261 (5H01-40GS-2B10) (VHH) EVQLVESGGGLVQPGGSLRLSCAASGSTLDYYAIGWFRQAPGKEREGVSCTSNSGSTYYGGSVKGRFTASRDNAKNTVYLQMNSLRPEDTAVYYCVATIGCATLGGTLDVQRYYYRGQGTLVTVSSGGGGSGGGGSGGGGSGGGGSGGGGSGGGGSGGGGSGGGGSEVQLVESGGGLVQPGGSLRLSCAASGSIFSINNMGWYRQAPGKQRELVTVVTSNLITTYADSVKGRFTISRDNAKNTVYLQMNSLKPEDTAVYYCNAWARSVGSVPYSQFWGQGTLVTVSS,,,,,,"% inhibition in P3X63 cytotoxicity assay, extract 1/150 [1]: 42%; Ratio (IC50 Fab 13.37/IC50 Nanobody), A549 cytotoxicity [2]: 1 fold; Efficacy (%), P3X63 cytotoxicity, MOI 12 [3]: 100%; IC50 value (M), P3X63 cytotoxicity, MOI 12 [3]: 4.8e-10 M"
Nanobody 3E10 (VHH) VHH: EVQLVESGGGLVQAGGSLRLSCTASGHTFSSYTMGWFRQAPGKEREFVAAMTRSGFNTHYSDSVKGRFTISRDNTSRDNTKITMALQMNSLKPEDTAVYYCTTGRGLTSYVANFWGQGTQVTVSS,25,2.51,0.0015,94,48,Kd [5]: 1 nM; koff [5]: 0.0039 s⁻¹; kon [5]: 2.7e+06 M⁻¹ s⁻¹
Nanobody 5E02 (VHH) VHH: EVQLVESGGGLVQPGGSLRLSCAASGITLDSIAICWFRQAPGKEREGVSCSRGSDGSTYYADSVKGRFTISRVNAKNTVYLQMNSLKPEDTAVYYCAAAPSIFYSGGYFPSGMDYWGKGTQVTVSS,71,2.43,0.00057,100,38,Kd [5]: 4 nM; koff [5]: 0.00068 s⁻¹; kon [5]: 180000 M⁻¹ s⁻¹
Nanobody 2B02 (VHH) VHH: EVQLVESGGGLVQPGDSLRLSCAASGRILSINNMVWYRQAPGKQRELVAHITSSGSTGYADSVKGRFTISRDNAKNTFYLQMTNLNPEDTAVYYCNCWVSSDSNAPLKNYWGQGTQVTVSS,46,2.4,0.00037,100,1730,
Nanobody 12B02 (VHH) VHH: EVQLVESGGGLVQPGGSLRLSCAASGFSLGVFAIGWFRQAPGKEREGVSCIDSSDGRTTYADSVKGRFTISRDNAKNTVYLQMNSLKPEDTAVYYCATDIETDVCSGAGWGFWGQGTQVTVSS,14,,4.4e-05,,,
Nanobody 271 (7C10-40GS-14E10) (VHH) EVQLVESGGGLVQAGGSLRLSCTASGRTLSSYTMGWFRQAPGTEREFVAAMTRSGFNTYYADSVKGRFTISRDSTENTMALQMSSLKPEDTAVYYCTAGRGLTSYRADYWGQGTLVTVSSGGGGSGGGGSGGGGSGGGGSGGGGSGGGGSGGGGSGGGGSEVQLVESGGGLVQPGGSLRLSCAASGRIFSINTMGWYRQAPGKQRELVAGVTINAITNYADSVKGRFTISRDNAKNTVWLQMNSLKPEDTAVYYCHAWARSSGSAPYSQNWGQGTLVTVSS,,,,,,"% inhibition in P3X63 cytotoxicity assay, extract 1/150 [1]: 43%; Ratio (IC50 Fab 13.37/IC50 Nanobody), A549 cytotoxicity [2]: 1 fold; Efficacy (%), P3X63 cytotoxicity, MOI 12 [3]: 100%; IC50 value (M), P3X63 cytotoxicity, MOI 12 [3]: 5.9e-10 M"
Nanobody 10C05 (VHH) VHH: EVQLVESGGGLVQPGGSLRLSCAASGSIFSINTMGWYRQAPGKQRDLVASITMNQVPNYADSVQGRFTISRDNVRNTVHLQMNAVKPEDTADYFCNAWVRSSGASPYTNYWGQGTQVTVSS,25,,0.0006,,,"% inhibition, P3X63 cytotoxicity assay, MOI 3 [8]: 100%; IC50 (nM), P3X63 cytotoxicity assay, MOI 3 [8]: > 1000 nM"
Nanobody 256 (13F07-40GS-5H01) (VHH) EVQLVESGGGLVQAGGSLRLSCAASGNTFSTNPMYWYRQAEGKQRELVASISSRGITNYADSVRGRFSISRDNTKDTVYLQMNSLKPEDTAVYYCRLASLSSGTVYWGKGTLVTVSSGGGGSGGGGSGGGGSGGGGSGGGGSGGGGSGGGGSGGGGSEVQLVESGGGLVQPGGSLRLSCAASGSTLDYYAIGWFRQAPGKEREGVSCTSNSGSTYYGGSVKGRFTASRDNAKNTVYLQMNSLRPEDTAVYYCVATIGCATLGGTLDVQRYYYRGQGTLVTVSS,,,,,,"% inhibition in P3X63 cytotoxicity assay, extract 1/150 [1]: 65%; Ratio (IC50 Fab 13.37/IC50 Nanobody), A549 cytotoxicity [2]: 21 fold; Efficacy (%), P3X63 cytotoxicity, MOI 12 [3]: 100%; IC50 value (M), P3X63 cytotoxicity, MOI 12 [3]: 5.4e-11 M"
Nanobody 257 (13F07-40GS-2B10) (VHH) EVQLVESGGGLVQAGGSLRLSCAASGNTFSTNPMYWYRQAEGKQRELVASISSRGITNYADSVRGRFSISRDNTKDTVYLQMNSLKPEDTAVYYCRLASLSSGTVYWGKGTLVTVSSGGGGSGGGGSGGGGSGGGGSGGGGSGGGGSGGGGSGGGGSEVQLVESGGGLVQPGGSLRLSCAASGSIFSINNMGWYRQAPGKQRELVTVVTSNLITTYADSVKGRFTISRDNAKNTVYLQMNSLKPEDTAVYYCNAWARSVGSVPYSQFWGQGTLVTVSS,,,,,,"% inhibition in P3X63 cytotoxicity assay, extract 1/150 [1]: 80%; Ratio (IC50 Fab 13.37/IC50 Nanobody), A549 cytotoxicity [2]: 10 fold; Efficacy (%), P3X63 cytotoxicity, MOI 12 [3]: 100%; IC50 value (M), P3X63 cytotoxicity, MOI 12 [3]: 1.3e-10 M"
Nanobody 3B11 (VHH) VHH: EVQLVESGGGLVQAGGSLRLSCAASGFTFDDYVIGWFRQAPGKEREGVSCISRLDGRTYYTDSVKGRFTISSDNAKNTVYLQMNSLKPEDTAVYYCALEPRYTGDYYPVHPELYDYWGQGTQVTVSS,26,0.55,0.0027,54,1140,
Nanobody 7C10 (VHH) VHH: EVQLVESGGGLVQAGGSLRLSCTASGRTLSSYTMGWFRQAPGTEREFVAAMTRSGFNTYYADSVKGRFTISRDSTENTMALQMSSLKPEDTAVYYCTAGRGLTSYRADYWGQGTLVTVSS,58,2.55,0.00082,100,42,Kd [5]: 2 nM; koff [5]: 0.0018 s⁻¹; kon [5]: 1.2e+06 M⁻¹ s⁻¹
Nanobody 4C03 (VHH) VHH: EVQLVESGGGLVQAGGSLRLSCVISASTVRNYDMGWFRQAPGKEREFVAAIDWSGGSTRYADSVKGRFTVSRDNAKNTVYLQMNSLKPEDTAVYYCVAAGFYNNYLRTAPNDWNYWGQGTLVTVSS,22,0.89,0.0068,,,"% inhibition, P3X63 cytotoxicity assay, MOI 1.5 [8]: > 20%; IC50 (nM), P3X63 cytotoxicity assay, MOI 1.5 [8]: 8890 nM"
Nanobody 4G10 (VHH) VHH: EVQLVESGGGLVQAGGSLRLSCVISEDGVRNYDMGWFRQAPGKEREFVATINWSGGSTNYADSVKGRFTVSRDNAKNTMYLQMDSLKPEDTAVYYCVAAGFYNNYLRTAPNDWNDWGQGTQVTVSS,81,2.6,0.00013,100,105,Kd [5]: 5 nM; koff [5]: 0.00065 s⁻¹; kon [5]: 140000 M⁻¹ s⁻¹
Nanobody 2G09 (VHH) VHH: EVQLVESGGGLVQPGGSLRLSCAASGSFGDNYELYAMTWFRQAPGERRDFVASVTGDGSTSYADSVKDRFTISRDNAKKLMYLQMNSLKPEDTAVYYCRLLNYWGQGTLVTVSS,45,2.37,0.001,55,4,
Nanobody 14B10 (VHH) VHH: EVQLVESGGGLVQPGGSLRLSCAASGRIFSINNMGWYHQAPGKQRELVATITMNGITTYADSVKGRFTISRDNAKNTVYLQMNSLKPEDTAVYYCSCWVRSSGGDPYRDYWGQGTQVTVSS,20,,0.00092,,,"% inhibition, P3X63 cytotoxicity assay, MOI 3 [8]: > 70%; IC50 (nM), P3X63 cytotoxicity assay, MOI 3 [8]: > 3000 nM"
Nanobody 11B09 (VHH) VHH: EVQLVESGGGLVQAGGSLRLSCAASRLTFNHYNMGWFRQAPGKERERVAEVTWSGDKIYYVDSVKGRFTISRDNTPNPVYLYLQMNSLKPEDTAVYYCATAPRGLPYANGYWGQGTQVTVSS,37,,0.0048,,,"% inhibition, P3X63 cytotoxicity assay, MOI 3 [8]: 100%; IC50 (nM), P3X63 cytotoxicity assay, MOI 3 [8]: 100 nM"

# Source: patent US20190055322A1 (Ablynx, published 2019)
